Experimental data reported in patent US20230235012A1 (ALPINE IMMUNE SCIENCES, published 2023).

What was measured:
[1] = molecular target: T1, human CTLA-4, full-length, expressed on transfected Expi293 cells (human, UniProt P16410 36-223); assay: flow cytometry, 100 nM, Expi293 cells with human CTLA-4
T1 construct: whole, on cells

[2] = molecular target: T2, human CD28, full-length, expressed on transfected Expi293 cells (human, UniProt P10747 19-220); assay: flow cytometry, 100 nM, Expi293 cells with human CD28
T2 construct: whole, on cells

T1 sequence (P16410 36-223): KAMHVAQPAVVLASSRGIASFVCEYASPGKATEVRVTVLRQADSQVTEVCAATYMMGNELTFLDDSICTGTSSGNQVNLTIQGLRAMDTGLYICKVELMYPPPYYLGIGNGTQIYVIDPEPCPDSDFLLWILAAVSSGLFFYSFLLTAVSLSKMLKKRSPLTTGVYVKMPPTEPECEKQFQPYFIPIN

B1: variant ICOSL IgV-Fc fusion N52S/N57A/Q100A (Fc fusion)
chain: DTQEKEVRAMVGSDVELSCACPEGSRFDLNDVYVYWQTSESKTVVTYHIPQSSSLEAVDSRYRNRALMSPAGMLRGDFSLRLFNVTPQDEQKFHCLVLSASLGFQEVLSVEVTLHVAANFSVGSGGGGSEPKSSDKTHTCPPCPAPEAEGAPSVFLFPPKPKDTLMISRTPEVTCVVVDVSHEDPEVKFNWYVDGVEVHNAKTKPREEQYNSTYRVVSVLTVLHQDWLNGKEYKCKVSNKALPAPIEKTISKAKGQPREPQVYTLPPSREEMTKNQVSLTCLVKGFYPSDIAVEWESNGQPENNYKTTPPVLDSDGSFFLYSKLTVDKSRWQQGNVFSCSVMHEALHNHYTQKSLSLSPG
MFI [1]: 233000 MFI | MFI [2]: 98200 MFI

B2: variant ICOSL IgV-Fc fusion N52T/N57K/Q100P (Fc fusion)
chain: DTQEKEVRAMVGSDVELSCACPEGSRFDLNDVYVYWQTSESKTVVTYHIPQTSSLEKVDSRYRNRALMSPAGMLRGDFSLRLFNVTPQDEQKFHCLVLSPSLGFQEVLSVEVTLHVAANFSVGSGGGGSEPKSSDKTHTCPPCPAPEAEGAPSVFLFPPKPKDTLMISRTPEVTCVVVDVSHEDPEVKFNWYVDGVEVHNAKTKPREEQYNSTYRVVSVLTVLHQDWLNGKEYKCKVSNKALPAPIEKTISKAKGQPREPQVYTLPPSREEMTKNQVSLTCLVKGFYPSDIAVEWESNGQPENNYKTTPPVLDSDGSFFLYSKLTVDKSRWQQGNVFSCSVMHEALHNHYTQKSLSLSPG
MFI [1]: 78300 MFI | MFI [2]: 88700 MFI

B3: variant ICOSL IgV-Fc fusion N52S/N57L/Q100G (Fc fusion)
chain: DTQEKEVRAMVGSDVELSCACPEGSRFDLNDVYVYWQTSESKTVVTYHIPQSSSLELVDSRYRNRALMSPAGMLRGDFSLRLFNVTPQDEQKFHCLVLSGSLGFQEVLSVEVTLHVAANFSVGSGGGGSEPKSSDKTHTCPPCPAPEAEGAPSVFLFPPKPKDTLMISRTPEVTCVVVDVSHEDPEVKFNWYVDGVEVHNAKTKPREEQYNSTYRVVSVLTVLHQDWLNGKEYKCKVSNKALPAPIEKTISKAKGQPREPQVYTLPPSREEMTKNQVSLTCLVKGFYPSDIAVEWESNGQPENNYKTTPPVLDSDGSFFLYSKLTVDKSRWQQGNVFSCSVMHEALHNHYTQKSLSLSPG
MFI [1]: 79400 MFI | MFI [2]: 71900 MFI

B4: variant ICOSL IgV-Fc fusion N52V/N57L/Q100A (Fc fusion)
chain: DTQEKEVRAMVGSDVELSCACPEGSRFDLNDVYVYWQTSESKTVVTYHIPQVSSLELVDSRYRNRALMSPAGMLRGDFSLRLFNVTPQDEQKFHCLVLSASLGFQEVLSVEVTLHVAANFSVGSGGGGSEPKSSDKTHTCPPCPAPEAEGAPSVFLFPPKPKDTLMISRTPEVTCVVVDVSHEDPEVKFNWYVDGVEVHNAKTKPREEQYNSTYRVVSVLTVLHQDWLNGKEYKCKVSNKALPAPIEKTISKAKGQPREPQVYTLPPSREEMTKNQVSLTCLVKGFYPSDIAVEWESNGQPENNYKTTPPVLDSDGSFFLYSKLTVDKSRWQQGNVFSCSVMHEALHNHYTQKSLSLSPG
MFI [1]: 252000 MFI | MFI [2]: 132000 MFI

B5: variant ICOSL IgV-Fc fusion N52T/N57Y/Q100A (Fc fusion)
chain: DTQEKEVRAMVGSDVELSCACPEGSRFDLNDVYVYWQTSESKTVVTYHIPQTSSLEYVDSRYRNRALMSPAGMLRGDFSLRLFNVTPQDEQKFHCLVLSASLGFQEVLSVEVTLHVAANFSVGSGGGGSEPKSSDKTHTCPPCPAPEAEGAPSVFLFPPKPKDTLMISRTPEVTCVVVDVSHEDPEVKFNWYVDGVEVHNAKTKPREEQYNSTYRVVSVLTVLHQDWLNGKEYKCKVSNKALPAPIEKTISKAKGQPREPQVYTLPPSREEMTKNQVSLTCLVKGFYPSDIAVEWESNGQPENNYKTTPPVLDSDGSFFLYSKLTVDKSRWQQGNVFSCSVMHEALHNHYTQKSLSLSPG
MFI [1]: 341000 MFI | MFI [2]: 161000 MFI
